From PMC5659314 (Journal of immunology (Baltimore, Md. : 1950), 2017)
Blank lines part the entries; values can stand above or below the molecule they belong to.

Assays:
mouse DR3.Fc (mouse) = assay: SPR
[1] = molecular target: recombinant human Galectin-9 (human, UniProt O00182 1-355); assay: SPR
[2] = molecular target: recombinant mouse Galectin-9 (mouse, UniProt O08573 1-353); assay: SPR
human TL1A = molecular target: T1, human TL1A (human, UniProt O95150 72-251); assay: ELISA
T1 sequence (looked up): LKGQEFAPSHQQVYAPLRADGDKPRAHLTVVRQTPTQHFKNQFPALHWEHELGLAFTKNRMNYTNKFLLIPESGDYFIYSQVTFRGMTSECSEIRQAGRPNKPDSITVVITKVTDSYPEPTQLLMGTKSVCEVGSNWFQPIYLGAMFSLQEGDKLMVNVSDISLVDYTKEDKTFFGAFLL

Chain of recombinant mouse Galectin-9 (mouse, UniProt O08573 1-353) (O08573 whole entry): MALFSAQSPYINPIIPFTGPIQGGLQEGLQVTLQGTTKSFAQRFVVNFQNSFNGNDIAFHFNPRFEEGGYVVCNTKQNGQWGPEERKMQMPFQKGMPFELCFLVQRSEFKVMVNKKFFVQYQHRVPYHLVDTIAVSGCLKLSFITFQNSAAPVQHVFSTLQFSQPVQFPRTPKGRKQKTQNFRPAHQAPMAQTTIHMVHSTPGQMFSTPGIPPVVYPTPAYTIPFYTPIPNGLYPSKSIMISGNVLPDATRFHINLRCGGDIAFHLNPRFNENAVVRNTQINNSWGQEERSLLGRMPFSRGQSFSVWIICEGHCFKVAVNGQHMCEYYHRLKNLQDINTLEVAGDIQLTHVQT
Chain of recombinant human Galectin-9 (human, UniProt O00182 1-355) (O00182 whole entry): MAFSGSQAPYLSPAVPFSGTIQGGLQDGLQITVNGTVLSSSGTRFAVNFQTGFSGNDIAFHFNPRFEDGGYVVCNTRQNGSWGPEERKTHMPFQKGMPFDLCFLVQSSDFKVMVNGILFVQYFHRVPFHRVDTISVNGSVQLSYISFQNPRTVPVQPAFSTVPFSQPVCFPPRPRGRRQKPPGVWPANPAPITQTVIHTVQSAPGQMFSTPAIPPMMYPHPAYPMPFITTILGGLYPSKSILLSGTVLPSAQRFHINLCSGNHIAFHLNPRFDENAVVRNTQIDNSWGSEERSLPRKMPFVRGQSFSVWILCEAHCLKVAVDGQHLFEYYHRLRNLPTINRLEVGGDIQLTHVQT

Kd (mouse DR3.Fc (mouse)): 180 nM
Molecule: recombinant human Galectin-9 (from UniProt O00182 1-355) (natural protein)

Kd (mouse DR3.Fc (mouse)): 360 nM
Molecule: recombinant mouse Galectin-9 (from UniProt O08573 1-353) (natural protein)

Kd [1]: ~430 nM
Kd [2]: ~440 nM
binding result (human TL1A): binds
B1: human DR3.Fc (fusion protein containing the extracellular region of human DR3) (Fc fusion, UniProt Q93038 25-199, looked up)
chain: QGGTRSPRCDCAGDFHKKIGLFCCRGCPAGHYLKAPCTEPCGNSTCLVCPQDTFLAWENHHNSECARCQACDEQASQVALENCSAVADTRCGCKPGWFVECQVSQCVSSSPFYCQPCLDCGALHRHTRLLCSRRDTDCGTCLPGFYEHGDGCVSCPTSTLGSCPERCAAVCGWRQ

binding result (human TL1A): binds
B2: de-glycosylated human DR3.Fc (PNGase F treated) (Fc fusion, UniProt Q93038 25-199, looked up)
chain: B1 chain
modifications: N-linked sugars removed by PNGase F
